# Assay results as given in the RNAGym collection of RNA variant scans (doi:10.1073/pnas.2313332121).
# Fewer inactive variants are shown than the library holds.
# B1: TPR 5TU (parent)
# chain: GGAUCUUCUCGAUCUAACAAAAAAGACAAAUCUGCCACAAAGCUUGAGAGCAUCUUCGGAUGCAGAGGCGGCAGCCUUCGGUGGCGCGAUAGCGCCAACGUUCUCAACUAUGACACGCAAAACGCGUGCUCCGUUGAAUGGAGUUUAUCAUG
# Variants of: B1
# Assay: polymerase ribozyme fitness, log enrichment relative to wild type (log ratio); higher = more active; in vitro selection for triplet polymerase activity
# In short: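 Mutant libraries of each subunit of a heterodimeric triplet polymerase ribozyme were built by PCR and transcribed. Each library went through one round of in vitro selection in triplicate: annealing with biotinylated primer, partner subunit and triplets, frozen incubation at −7 °C, gel excision of extended constructs, streptavidin-bead capture and RT-PCR. Input and output libraries were Illumina-sequenced; only genotypes with ≥10 input reads and ≥1 read per output were kept. Fitness is log2(genotype enrichment/wild-type enrichment), using inverse-variance-weighted replicate averages.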
row,Variant,polymerase ribozyme fitness (log ratio)
1,G59C G83A C87A A137U G140U,≤ -4.2
2,G58U G68A C95U,-4.01
3,G59C G133U,-3.47
4,G59C U61A,-1.51
5,G59A C69A G86U A89C C95G,≤ -4.2
6,G59C C85U,-0.507
7,G59A C87U U101G G136C,-2.91
8,G59C G86U C95U,-2.13
9,G58U C123U,0.837
10,G59C A60G C69U,-2.47
11,G59C A89U C96G A107G,≤ -4.2
12,G59A C85G G126U,-2.21
13,G59A C76G C93G,≤ -4.2
14,G59C A147C,-0.516
15,G59C G86A,-2.61
16,G59A C75G G94U C95U,-3.76
17,G59C G74A G80C U127G A142G,≤ -4.2
18,G59C C95A,-0.188
19,G59C C95U,0.0454
20,G59C C63U C87U A107U,-3.81
21,G59A G86U A119U G140U,-3.26

row,Variant,polymerase ribozyme fitness (log ratio)
1,G58U G86A U130C,0.803
2,G59C G86C G143U,≤ -4.2
3,G59A C85G G100A A115U U127G G141A,≤ -4.2
4,G59A C87G G140C,≤ -4.2
5,G58U U82A C116U,0.803
6,G58U G152U,-2.71
7,G59C A142C,-0.57
8,G59C A98U C125A G140C,≤ -4.2
9,G59A G92U C114A A119U,-3.59
10,G58U G141A,1.05
11,G58U G141C,0.501
12,G58U G128U,-3.02
13,G59C C114U G128A A142U,-2.5
14,G59C C87A U109A G133C,≤ -4.2
15,G59C C93A C95A,-4.05
16,G59A G84U A98G A115U,-3.58
17,G59C G81C G84C,≤ -4.2
18,G58U G86C,-1.98
19,G59C G84A,-0.218
20,G59C G71A A115G,-4.09
21,G58U U82A G84U U146G,-2.04

row,Variant,polymerase ribozyme fitness (log ratio)
1,G59A C76A C85A G117A A122C,-2.85
2,G59A A110U,-3.64
3,G59A G136C,-2.89
4,G59C A89U G92C A121G,-2.45
5,G59A C118A,-0.536
6,G59A C79U,-3.86
7,G59C G126U,0.134
8,G59C G126A,0.0741
9,G59C C96U U146A,0.268
10,G59A G88U C116G,-3.56
11,G59A U90G C95G,≤ -4.2
12,G58U C129G,-2.47
13,G58U U82A G84U,-0.648
14,G59A G88U,-3.96
15,G59A G88C,-3.73
16,G59A G88A,-4.04
17,G59A C93A U135C U146A,-3.8
18,G59C C93U U102A A137G,-3.95
19,G59C G88C A106U C108U,≤ -4.2
20,G59A,-0.0739
21,G59C,0.0972

row,Variant,polymerase ribozyme fitness (log ratio)
1,G59U,-0.206
2,G58U U78G C79U G80A C85U C96U A106G A147C,≤ -4.2
3,G59A U82C U134A,-2.59
4,G59A C132G U139C,-2.96
5,G59A G92U U104C A121C,-2.09
6,G59A G124U C125G G136U U139A U146A,≤ -4.2
7,G59C G100A A115C U144C,≤ -4.2
8,G59A C85U U134A,-3.92
9,G59A A89U,-0.162
10,G59A G74A,-3.23
11,G59A A147U,1.25
12,G59C G94A U101G A113C,≤ -4.2
13,G59C G62A A122U U134G,-3.13
14,G59U A73G,-0.629
15,G58U G59A,0.429
16,G59A C85U U102G A106C G141A,≤ -4.2
17,G59A G84U G92C C95G G124C,-2.69
18,G59C G86C C118A,-2.85
19,G59C U127G U130C,≤ -4.2
20,G59C A107U G143U,≤ -4.2
21,G59C A64U C75U C132U,≤ -4.2
